Reference: patent US20160244740A1, “MUTANT CHON[…] I COMPOSITIONS AND METHODS OF THEIR USE” (OHIO STATE INNOVATION FOUNDATION, priority 2013, published 2016)
Read-outs that look alike come from different tables or passages of the source.

Key:
[1] = in vivo; cited from earlier work
subcutaneous tumors = conditions: with adenovirus; cited from earlier work
glioma cells = experiment: Effect of Chase ABC treatment of glioma cells in vitro on oHSV infection/replication; type: cell-based
Excerpt: The tumor's extracellular matrix (ECM) can pose a significant barrier for efficient viral spread, thus limiting virotherapy efficacy. Chondroitin sulfate proteoglycans (CSPG) are one of the major components of glioma ECM. Choindroitinase ABC 1 (Chase ABC) is a bacterial enzyme that can depolymerize this ECM scaffold. Chase ABC mediated digestion of glioma CSPG can enhance oHSV dissemination and efficacy. […] This study examines the mechanism and impact of Chase ABC on oncolysis. Reduced virus replication can contribute to limited oncolytic efficacy of oHSV. Several innovative approaches are currently under investigation including transcriptional retargeting of viruses to drive virulence under the control of tumor-specific promoters. rQNestin34.5 is an oHSV that expresses viral ICP34.5 regulated by glioma-specific nestin promoter in an ICP34.5 deleted viral backbone. […] An oHSV expressing the humanized sequence of Chase ABC within the context of rQNestin34.5 can be used. […] The anti-tumor efficacy of the Chase ABC-expressing oHSV in vitro and in vivo, in glioma can be tested. The impact of the Chase ABC-expressing oHSV on tumor immune cell infiltration and responses can also be tested.

[2] = test system: U87ΔEGFR human glioma spheroids; experiment: oHSV spread in organotypic glioma model in presence/absence of Chase ABC; type: cell-based; conditions: 10^4 pfus of rQNestin34.5, presence vs absence of purified Chase ABC, n=3/group
Protocol: Briefly U87delta EGFR glioma cell line spheroids on Organotypic brain slice cultures were treated with or without purified Chase and then infected with OV. […] Gli36ΔEGFR mice were inoculated with 1×10^6 viral particles on six days (shown by arrows), and percent survival (FIG. 15A) and tumor volume were followed over the course of the study. U87ΔEGFR mice were also inoculated with 1×10^6 viral particles on six days (shown by arrows), and percent survival (FIG. 15B) and tumor volume were followed over the course of the study. U87ΔEGFR mice were also inoculated with 3×10^5 viral particles once ten days after cell implantation (shown by arrow), and percent survival (FIG. 15C) was followed over the course of the study.
As a preliminary result, the effect of Chase ABC treatment on spread by the rQNestin34.5 oHSV was tested in an organotypic glioma model. Briefly, U87ΔEGFR human glioma spheroids (made by the hanging drop method), grown on 300-μm organotypic brain slices from 5-7-day-old mice, were infected with 10^4 pfus of rQNestin34.5, in the presence/absence of Chase ABC. Spread of oHSV in the spheres was visualized by fluorescent imaging of oHSV encoded GFP in infected cells (n=3/group).

[3] = cited from earlier work; for toxicity/hemorrhages/glial reactivity: repeated injections into brains and spinal cords

For collagenase, which intratumoral hemorrhages [1] is on record?
The intratumoral hemorrhages was “intratumoral hemorrhages occurred in many tumors”.

With hyaluronidase as the molecule, how does the “viral spread and therapeutic efficacy” value (subcutaneous tumors) read?
Its value is “increased viral spread and therapeutic efficacy”.

B1: Chase ABC: bacterial enzyme, chondroitin-sulfate-ABC endolyase; bacterially produced and purified (Seikagaku Inc) (protein, UniProt P59807 25-1021, looked up)
Chondroitin sulfate ABC …: ATSNPAFDPKNLMQSEIYHFAQNNPLADFSSDKNSILTLSDKRSIMGNQSLLWKWKGGSSFTLHKKLIVPTDKEASKAWGRSSTPVFSFWLYNEKPIDGYLTIDFGEKLISTSEAQAGFKVKLDFTGWRAVGVSLNNDLENREMTLNATNTSSDGTQDSIGRSLGAKVDSIRFKAPSNVSQGEIYIDRIMFSVDDARYQWSDYQVKTRLSEPEIQFHNVKPQLPVTPENLAAIDLIRQRLINEFVGGEKETNLALEENISKLKSDFDALNIHTLANGGTQGRHLITDKQIIIYQPENLNSQDKQLFDNYVILGNYTTLMFNISRAYVLEKDPTQKAQLKQMYLLMTKHLLDQGFVKGSALVTTHHWGYSSRWWYISTLLMSDALKEANLQTQVYDSLLWYSREFKSSFDMKVSADSSDLDYFNTLSRQHLALLLLEPDDQKRINLVNTFSHYITGALTQVPPGGKDGLRPDGTAWRHEGNYPGYSFPAFKNASQLIYLLRDTPFSVGESGWNNLKKAMVSAWIYSNPEVGLPLAGRHPFNSPSLKSVAQGYYWLAMSAKSSPDKTLASIYLAISDKTQNESTAIFGETITPASLPQGFYAFNGGAFGIHRWQDKMVTLKAYNTNVWSSEIYNKDNRYGRYQSHGVAQIVSNGSQLSQGYQQEGWDWNRMQGATTIHLPLKDLDSPKPHTLMQRGERGFSGTSSLEGQYGMMAFDLIYPANLERFDPNFTAKKSVLAADNHLIFIGSNINSSDKNKNVETTLFQHAITPTLNTLWINGQKIENMPYQTTLQQGDWLIDSNGNGYLITQAEKVNVSRQHQVSAENKNRQPTEGNFSSAWIDHSTRPKDASYEYMVFLDATPEKMGEMAQKFRENNGLYQVLRKDKDVHIILDKLSNVTGYAFYQPASIEDKWIKKVNKPAIVMTHRQKDTLIVSAVTPDLNMTRQKAATPVTINVTINGKWQSADKNSEVKYQVSGDNTELTFTSYFGIPQEIKLSPLP
Which results are given for B1?
oHSV infection/replication (glioma cells): does not negatively affect oHSV infection/replication; oHSV spread in spheres (GFP imaging) [2]: increase in viral spread; oHSV spread in spheres (GFP imaging) ([2]; listed as purified Chase ABC): increased oHSV spread within all three glioma spheroids; loss of neurons, alterations of their structure, reactions of glial cells ([3]; intracerebral injections, immediately or after five months of treatment): did not reveal loss of neurons or alterations of their structure nor reactions of glial cells; toxicity/hemorrhages/glial reactivity [3]: have not been associated with deleterious effects; toxicity/hemorrhages/glial reactivity ([3]; listed as purified Chase ABC): absence of toxicity/hemorrhages/glial reactivity
